# From PMC12019227, “Phase separation of hnRNPA1 and TERRA regulates telomeric stability”
# Experiments:
# UP1 R82A/K113A = UP1 R82A/K113A (human, UniProt P09651 1-196, R82A;K113A); test: ITC; ITC: 20 mM Tris-HCl pH 7.5, 150 mM NaCl, 20 C; protein 160 uM in syringe, RNA 10 uM in cell; conditions: protein: recombinant, tags: C-terminal His6, single strand
# UP1 wt = UP1 wt (human, UniProt P09651 1-196); test: as above; conditions: protein: recombinant, tags: C-terminal His6, chain copies: 2, single strand
# UP1 D42R/R146A [1] = biological target: T1, UP1 D42R/R146A (human, UniProt P09651 1-196, D42R;R146A); test: as above; conditions: protein: recombinant; tags: C-terminal His6; single strand
# UP1 Q12A/G147A = UP1 Q12A/G147A (human, UniProt P09651 1-196, Q12A;G147A); test: as above; conditions: protein: recombinant, tags: C-terminal His6, single strand
# UP1 R82A = UP1 R82A (human, UniProt P09651 1-196, R82A); test: as above; conditions: protein: recombinant; tags: C-terminal His6; single strand; crystal has 2 antiparallel strands
# UP1 V90A/R92A/S95A = UP1 V90A/R92A/S95A (human, UniProt P09651 1-196, V90A;R92A;S95A); test: as above; conditions: protein: recombinant; tags: C-terminal His6; single strand; crystal has 2 antiparallel strands
# UP1 R55A = UP1 R55A (human, UniProt P09651 1-196, R55A); test: as above; conditions: protein: recombinant; tags: C-terminal His6; single strand; crystal has 2 antiparallel strands
# UP1 R146A = UP1 R146A (human, UniProt P09651 1-196, R146A); test: as above; conditions: protein: recombinant; tags: C-terminal His6; single strand; crystal has 2 antiparallel strands
# UP1 K113A = UP1 K113A (human, UniProt P09651 1-196, K113A); test: as above; conditions: protein: recombinant; tags: C-terminal His6; single strand; crystal has 2 antiparallel strands
# UP1 D42R = UP1 D42R (human, UniProt P09651 1-196, D42R); test: as above; conditions: protein: recombinant; tags: C-terminal His6; single strand; crystal has 2 antiparallel strands
# UP1 D42R/R146A [2] = biological target: T1, UP1 D42R/R146A; test: ITC; text: could not bind RNA at all (conflicts with table); ITC: 20 mM Tris-HCl pH 7.5, 150 mM NaCl, 20 C; protein 160 uM in syringe, RNA 10 uM in cell; conditions: protein: recombinant; tags: C-terminal His6; single strand; crystal has 2 antiparallel strands
# [3] = crystal has 2 antiparallel strands
# Chain of UP1 wt (P09651 1-196): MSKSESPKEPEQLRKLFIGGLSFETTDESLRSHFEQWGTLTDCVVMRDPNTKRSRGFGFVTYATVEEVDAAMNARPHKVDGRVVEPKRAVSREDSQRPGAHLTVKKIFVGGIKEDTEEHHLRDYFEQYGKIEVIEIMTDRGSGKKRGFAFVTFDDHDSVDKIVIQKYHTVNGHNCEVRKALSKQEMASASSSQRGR
# Chain of UP1 Q12A/G147A (P09651 1-196 Q12A/G147A): as the sequence (P09651 1-196) above, with Q12A, G147A counted along it
# Chain of UP1 R82A/K113A (P09651 1-196 R82A/K113A): as the sequence (P09651 1-196) above, with R82A, K113A counted along it
# T1 sequence (P09651 1-196 D42R/R146A): as the sequence (P09651 1-196) above, with D42R, R146A counted along it
# Chain of UP1 K113A (P09651 1-196 K113A): as the sequence (P09651 1-196) above, with K113A counted along it
# Chain of UP1 R55A (P09651 1-196 R55A): as the sequence (P09651 1-196) above, with R55A counted along it
# Chain of UP1 R146A (P09651 1-196 R146A): as the sequence (P09651 1-196) above, with R146A counted along it
# Chain of UP1 V90A/R92A/S95A (P09651 1-196 V90A/R92A/S95A): as the sequence (P09651 1-196) above, with V90A, R92A, S95A counted along it
# Chain of UP1 R82A (P09651 1-196 R82A): as the sequence (P09651 1-196) above, with R82A counted along it
# Chain of UP1 D42R (P09651 1-196 D42R): as the sequence (P09651 1-196) above, with D42R counted along it
binder,measurement,setting,value
TTAGGGTTAGGG (ssDNA) [Telo DNA (TTAGGG)2],Kd,UP1 R82A/K113A,100 ± 30 nM
same,Kd,UP1 wt,80 ± 20 nM
same,Kd,UP1 D42R/R146A [1],4030 ± 1020 nM
same,Kd,UP1 Q12A/G147A,210 ± 80 nM
UUAGGGUUAGGG (ssRNA) [TERRA (UUAGGG)2],Kd,UP1 R82A,460 ± 70 nM
same,Kd,UP1 R82A/K113A; [3],770 ± 160 nM
same,Kd,UP1 V90A/R92A/S95A,1410 ± 120 nM
same,Kd,UP1 R55A,520 ± 40 nM
same,Kd,UP1 R146A,2120 ± 500 nM
same,Kd,UP1 K113A,300 ± 20 nM
same,Kd,UP1 wt; [3],270 ± 20 nM
same,Kd,UP1 Q12A/G147A; [3],120 ± 20 nM
same,Kd,UP1 D42R,630 ± 120 nM
same,Kd,UP1 D42R/R146A [2],2260 ± 310 nM
